Results taken from the supplement of paper PMC10567573.

B1: ZNF8 (parent)
chain: SLGRHKRTHTGEKPYTCSVCGKSF
B2: CRYL1 (parent)
chain: RNALENIRKEMKLLEQAGSLKGSL
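Further: lentivirally expressed fusions sorted by FACS into six bins by GFP to DsRed ratio, PSI derived from sequencing read proportions per bin multiplied by bin number.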

Variants of: B1
Experiment: protein stability index of a GFP-peptide fusion (GPS, HEK-293T) (PSI 1-6); higher = more stable
Settings: c terminus: a fixed tail appended
Variant SEGRHKRTHTGEKPYTCSVCGKSF [L2E] has a protein stability index of 2.8. With SNGRHKRTHTGEKPYTCSVCGKSF [L2N] the protein stability index was 3.82. For SVGRHKRTHTGEKPYTCSVCGKSF [L2V], the protein stability index was 2.8. Work on SHGRHKRTHTGEKPYTCSVCGKSF [L2H] yielded a protein stability index of 4.09. For SKGRHKRTHTGEKPYTCSVCGKSF [L2K], the protein stability index was 3.66. Variant SMGRHKRTHTGEKPYTCSVCGKSF [L2M] has a protein stability index of 2.67. For SWGRHKRTHTGEKPYTCSVCGKSF [L2W], the protein stability index was 2.93. SQGRHKRTHTGEKPYTCSVCGKSF [L2Q] showed a protein stability index of 2.25. STGRHKRTHTGEKPYTCSVCGKSF [L2T] gave a protein stability index of 3.12. Variant SFGRHKRTHTGEKPYTCSVCGKSF [L2F] has a protein stability index of 2.61. Work on SIGRHKRTHTGEKPYTCSVCGKSF [L2I] yielded a protein stability index of 2.99. With SCGRHKRTHTGEKPYTCSVCGKSF [L2C] the protein stability index was 4.3. Work on SRGRHKRTHTGEKPYTCSVCGKSF [L2R] yielded a protein stability index of 2.04. With SGGRHKRTHTGEKPYTCSVCGKSF [L2G] the protein stability index was 2.95. Variant SYGRHKRTHTGEKPYTCSVCGKSF [L2Y] has a protein stability index of 3.26. Variant SAGRHKRTHTGEKPYTCSVCGKSF [L2A] has a protein stability index of 2.71. In the case of SPGRHKRTHTGEKPYTCSVCGKSF [L2P], the protein stability index is reported as 2.77. Variant SDGRHKRTHTGEKPYTCSVCGKSF [L2D] has a protein stability index of 3.19. SLERHKRTHTGEKPYTCSVCGKSF [G3E] gave a protein stability index of 3.41. SLDRHKRTHTGEKPYTCSVCGKSF [G3D] gave a protein stability index of 3.32. Variant SLCRHKRTHTGEKPYTCSVCGKSF [G3C] has a protein stability index of 3.68. In the case of SLIRHKRTHTGEKPYTCSVCGKSF [G3I], the protein stability index is reported as 3.15. SLKRHKRTHTGEKPYTCSVCGKSF [G3K] showed a protein stability index of 4.65. SLARHKRTHTGEKPYTCSVCGKSF [G3A] gave a protein stability index of 2.12. With SLHRHKRTHTGEKPYTCSVCGKSF [G3H] the protein stability index was 4.17. MLGRHKRTHTGEKPYTCSVCGKSF [S1M] showed a protein stability index of 2.46. Variant ALGRHKRTHTGEKPYTCSVCGKSF [S1A] has a protein stability index of 2.86. Work on PLGRHKRTHTGEKPYTCSVCGKSF [S1P] yielded a protein stability index of 2.72. HLGRHKRTHTGEKPYTCSVCGKSF [S1H] gave a protein stability index of 3.08. YLGRHKRTHTGEKPYTCSVCGKSF [S1Y] showed a protein stability index of 2.42. TLGRHKRTHTGEKPYTCSVCGKSF [S1T] showed a protein stability index of 2.94. For RLGRHKRTHTGEKPYTCSVCGKSF [S1R], the protein stability index was 2.82. Work on ELGRHKRTHTGEKPYTCSVCGKSF [S1E] yielded a protein stability index of 3.94. Work on DLGRHKRTHTGEKPYTCSVCGKSF [S1D] yielded a protein stability index of 3.4. For VLGRHKRTHTGEKPYTCSVCGKSF [S1V], the protein stability index was 2.58. Work on WLGRHKRTHTGEKPYTCSVCGKSF [S1W] yielded a protein stability index of 1.5. Variant GLGRHKRTHTGEKPYTCSVCGKSF [S1G] has a protein stability index of 2.8. For LLGRHKRTHTGEKPYTCSVCGKSF [S1L], the protein stability index was 1.73. Work on QLGRHKRTHTGEKPYTCSVCGKSF [S1Q] yielded a protein stability index of 3.71. With KLGRHKRTHTGEKPYTCSVCGKSF [S1K] the protein stability index was 3.05. With NLGRHKRTHTGEKPYTCSVCGKSF [S1N] the protein stability index was 2.63. CLGRHKRTHTGEKPYTCSVCGKSF [S1C] showed a protein stability index of 3.6. In the case of FLGRHKRTHTGEKPYTCSVCGKSF [S1F], the protein stability index is reported as 2.21. ILGRHKRTHTGEKPYTCSVCGKSF [S1I] showed a protein stability index of 2.18.

Variants of: B2
Experiment: as above
Settings: c terminus: a fixed tail appended
Variant RNALENIRKEMKLLEQAGSLKRSL [G22R] has a protein stability index of 3.4. For RNALENIRKEMKLLEQAGSLKTSL [G22T], the protein stability index was 3.77. RNALENIRKEMKLLEQAGSLKISL [G22I] showed a protein stability index of 1.4. For RNALENIRKEMKLLEQAGSLKLSL [G22L], the protein stability index was 2.02. Work on RNALENIRKEMKLLEQAGSLKHSL [G22H] yielded a protein stability index of 2.94. RNALENIRKEMKLLEQAGSLKQSL [G22Q] showed a protein stability index of 3.36. Work on RNALENIRKEMKLLEQAGSLKNSL [G22N] yielded a protein stability index of 3.04. For RNALENIRKEMKLLEQAGSLKSSL [G22S], the protein stability index was 3.14. RNALENIRKEMKLLEQAGSLKESL [G22E] gave a protein stability index of 3.57. RNALENIRKEMKLLEQAGSLKMSL [G22M] gave a protein stability index of 2.27. Work on RNALENIRKEMKLLEQAGSLKFSL [G22F] yielded a protein stability index of 2.65. RNALENIRKEMKLLEQAGSLKWSL [G22W] gave a protein stability index of 2. Work on RNALENIRKEMKLLEQAGSLKVSL [G22V] yielded a protein stability index of 2.15. In the case of RNALENIRKEMKLLEQAGSLKYSL [G22Y], the protein stability index is reported as 2.28. RNALENIRKEMKLLEQAGSLKPSL [G22P] showed a protein stability index of 3.51. Work on RNALENIRKEMKLLEQAGSLKKSL [G22K] yielded a protein stability index of 4.21. RNALENIRKEMKLLEQAGSLKGSK [L24K] showed a protein stability index of 4.12. Variant RNALENIRKEMKLLEQAGSLKGSY [L24Y] has a protein stability index of 3.08. RNALENIRKEMKLLEQAGSLKGSD [L24D] gave a protein stability index of 3.99. For RNALENIRKEMKLLEQAGSLKGSA [L24A], the protein stability index was 4.11. With RNALENIRKEMKLLEQAGSLKGSC [L24C] the protein stability index was 4.05. RNALENIRKEMKLLEQAGSLKGSW [L24W] showed a protein stability index of 3.16. For RNALENIRKEMKLLEQAGSLKGSP [L24P], the protein stability index was 3.77. Variant RNALENIRKEMKLLEQAGSLKGSE [L24E] has a protein stability index of 4.08. For RNALENIRKEMKLLEQAGSLKGSS [L24S], the protein stability index was 3.95. Work on RNALENIRKEMKLLEQAGSLKGSV [L24V] yielded a protein stability index of 3.66. Variant RNALENIRKEMKLLEQAGSLKGSF [L24F] has a protein stability index of 3.13. With RNALENIRKEMKLLEQAGSLKGSI [L24I] the protein stability index was 3.2. RNALENIRKEMKLLEQAGSLKGST [L24T] showed a protein stability index of 3.47. RNALENIRKEMKLLEQAGSLKGSM [L24M] showed a protein stability index of 3.3. For RNALENIRKEMKLLEQAGSLKGSN [L24N], the protein stability index was 3.81. RNALENIRKEMKLLEQAGSLKGCL [S23C] showed a protein stability index of 3.08. RNALENIRKEMKLLEQAGSLKGGL [S23G] showed a protein stability index of 3.4. With RNALENIRKEMKLLEQAGSLKGAL [S23A] the protein stability index was 2.9. With RNALENIRKEMKLLEQAGSLKGIL [S23I] the protein stability index was 2.45. For RNALENIRKEMKLLEQAGSLKGRL [S23R], the protein stability index was 3.07. RNALENIRKEMKLLEQAGSLKGFL [S23F] showed a protein stability index of 2.64. In the case of RNALENIRKEMKLLEQAGSLKGDL [S23D], the protein stability index is reported as 3.48. With RNALENIRKEMKLLEQAGSLKGYL [S23Y] the protein stability index was 2.73. Work on RNALENIRKEMKLLEQAGSLKGNL [S23N] yielded a protein stability index of 3.22. RNALENIRKEMKLLEQAGSLKGML [S23M] gave a protein stability index of 2.27. In the case of RNALENIRKEMKLLEQAGSLKGWL [S23W], the protein stability index is reported as 1.95. Variant RNALENIRKEMKLLEQAGSLKGKL [S23K] has a protein stability index of 3.39. For RNALENIRKEMKLLEQAGSLKGPL [S23P], the protein stability index was 3.56. With RNALENIRKEMKLLEQAGSLKGEL [S23E] the protein stability index was 3.84. Work on RNALENIRKEMKLLEQAGSLKGVL [S23V] yielded a protein stability index of 2.2. Work on RNALENIRKEMKLLEQAGSLKGQL [S23Q] yielded a protein stability index of 3.32. With RNALENIRKEMKLLEQAGSLKGTL [S23T] the protein stability index was 2.8. With RNALENIRKEMKLLEQAGSLKGLL [S23L] the protein stability index was 1.87. RNALENIRKEMKLLEQAGSLKGHL [S23H] showed a protein stability index of 3.12.
